For experiment [1], the target named is T1, human TROP2 on FaDu and HPAF-II cells (human, UniProt P09758 27-323).
T1 construct: whole, on cells
T1 sequence (looked up): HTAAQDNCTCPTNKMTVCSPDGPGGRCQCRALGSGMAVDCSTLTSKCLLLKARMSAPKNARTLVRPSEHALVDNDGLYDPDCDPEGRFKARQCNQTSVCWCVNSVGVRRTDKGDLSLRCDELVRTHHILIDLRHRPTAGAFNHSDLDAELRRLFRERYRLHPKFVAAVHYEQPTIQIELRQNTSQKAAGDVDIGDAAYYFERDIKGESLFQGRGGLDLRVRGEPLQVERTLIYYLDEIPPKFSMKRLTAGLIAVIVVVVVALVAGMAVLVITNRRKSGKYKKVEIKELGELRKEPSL
As to the kind of experiment: flow cytometry on HPAF-II cells, Penta-His Alexa Fluor 488 detection, rMFI.

Experiment [2] concerns the target T2, cynomolgus monkey CD3 on cynomolgus monkey PBMC or T cell line HSC-F (cynomolgus monkey, UniProt Q95LI5 22-198).
T2 construct: whole, on cells; Native CD3 complex on monkey T cells; also called cynomolgus monkey CD3 (PBMC); cynomolgus monkey CD3 antigen
Put plainly: flow cytometry on cynomolgus monkey PBMC, Penta-His Alexa Fluor 488 detection, rMFI. On the technique in general: Flow cytometry measures light scatter and fluorescence of single cells or particles in a stream.

Experiment [3] has as its target T3, recombinant human TROP-2/human IgG Fc fused form (R&D Systems, Inc.) (human, UniProt P09758 27-274, limits assumed).
T3 construct: Bought reagent; also called TROP-2/Fc; not shown: human IgG Fc
T3 sequence (looked up): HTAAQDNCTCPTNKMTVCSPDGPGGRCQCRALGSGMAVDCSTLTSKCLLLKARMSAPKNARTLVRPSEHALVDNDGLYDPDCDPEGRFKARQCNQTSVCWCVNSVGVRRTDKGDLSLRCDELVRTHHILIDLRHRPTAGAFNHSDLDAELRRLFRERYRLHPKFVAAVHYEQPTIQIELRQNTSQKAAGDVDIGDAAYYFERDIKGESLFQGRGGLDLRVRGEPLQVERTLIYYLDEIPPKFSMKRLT
As to the kind of experiment: SPR (BIAcore 3000), TROP-2/Fc captured on anti-human IgG(Fc), bispecific as analyte, 1:1 binding model. As for the experimental part: The bispecific molecule was assayed for its binding to TROP2 using BIAcore 3000 (GE Healthcare Bio-Sciences Corp.) by the capture method, which involves capturing the antigen by an anti-human IgG antibody and assaying the bispecific molecule as an analyte. The antigen used was recombinant human TROP-2/human IgG Fc fused form (R&D Systems, Inc.). Approximately 2000 RU of the anti-human IgG(Fc) antibody (Human Antibody Capture Kit, GE Healthcare Bio-Sciences Corp.) was covalently bound to a sensor chip CM5 (GE Healthcare Bio-Sciences Corp.) by the amine coupling method. Similarly, this antibody was immobilized onto a reference cell. The running buffer used was HBS-P (10 mM HEPES (pH 7.4), 0.15 M NaCl, and 0.005% Surfactant P20). The bispecific molecule was prepared at a 2-fold dilution ratio from 200 nM to 1 nM. A 1 μg/ml solution of the antigen was added onto the anti-human IgG(Fc) antibody-immobilized chip for approximately […]. Then, each concentration of the bispecific molecule was added at a flow rate of 30 μl/min for 300 seconds. Subsequently, the dissociation phase was monitored for 600 seconds. A 3 M magnesium chloride solution was added as a regenerating solution for 30 seconds. The data was analyzed using the 1:1 binding model of analytical software (BIAevaluation software, version 4.1.1) to calculate an association rate constant (ka), a dissociation rate constant (kd), and a dissociation constant (KD; KD=kd/ka).
A general note: In SPR one partner is held on a chip, and binding of the other changes the refractive index at the surface.

Experiment [4] has as its target T4, human CD3 on human PBMC (human, UniProt P07766 23-207).
T4 construct: Native CD3 complex on T cells in PBMC; the other chains of the complex are native; also called human CD3 (PBMC)
Put plainly: flow cytometry on human PBMC (dead cells and CD19-positive cells excluded), Penta-His Alexa Fluor 488 detection, rMFI.

In experiment [5] the target is T5, human CD3εγ single-chain antigen (human).
T5 construct: also called scCD3εγ; His-scCD3 antigen
T5 chain: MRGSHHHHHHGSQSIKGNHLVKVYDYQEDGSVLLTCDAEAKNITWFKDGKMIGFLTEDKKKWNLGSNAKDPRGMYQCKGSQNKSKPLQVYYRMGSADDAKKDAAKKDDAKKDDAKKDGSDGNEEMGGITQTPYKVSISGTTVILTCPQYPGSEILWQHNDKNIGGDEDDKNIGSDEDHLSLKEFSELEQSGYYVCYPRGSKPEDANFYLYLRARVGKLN
As to the kind of experiment: SPR (BIAcore 3000), human CD3εγ single-chain antigen immobilized, bispecific as analyte; KD from the amount bound at each concentration. The procedure:
The bispecific molecule was assayed for its binding to the CD3εγ antigen using BIAcore 3000 (GE Healthcare Bio-Sciences Corp.) by a method which involves immobilizing the antigen and assaying the antibody as an analyte. […] Approximately 100 RU of the antigen was covalently bound to a sensor chip CM5 (GE Healthcare Bio-Sciences Corp.) by the amine coupling method. Immobilization treatment was performed without the addition of an antigenic protein as a reference cell. […] The bispecific molecule was prepared at a 2-fold dilution ratio from 1 μM (highest concentration) to 4 nM or at a 2-fold dilution ration from 200 nM to 1 nM. Each concentration of the bispecific molecule was added to the antigen-immobilized chip at a flow rate of […] for 25 minutes, and the amount of the bispecific molecule bound thereto was monitored. A 10 mM glycine-hydrochloric acid solution (pH 1.5) was added as a regenerating solution for 30 seconds. The data was analyzed using analytical software (BIAevaluation software, version 4.1.1) to calculate a dissociation constant KD from the amount of the bispecific molecule bound at each concentration.

Experiment [6] has as its target T2, cynomolgus monkey CD3 on cynomolgus …. Put plainly: flow cytometry, hybridoma supernatant on cynomolgus monkey T cell line HSC-F.
Method: A cynomolgus monkey T cell line HSC-F (JCRB Cell Bank, No. JCRB1164) was adjusted to a concentration of 5×10⁶ cells/mL in an RPMI1640 medium containing FBS and added at a concentration of 100 μL/well to a 96-well plate. […] Then, the supernatant was removed, and the cells in the wells were washed once with PBS containing 5% FBS, then suspended by the addition of Anti-Rat IgG FITC conjugate diluted 500-fold with PBS containing 5% FBS, and left standing at 4° C. for 1 hour. The cells were washed three times with PBS containing 5% FBS and then resuspended in PBS containing 5% FBS and 2 μg/ml 7-aminoactinomycin D, followed by detection using a flow cytometer. The data was analyzed using Flowjo. After removal of 7-aminoactinomycin D-positive dead cells by gating, the FITC fluorescence intensity of live cells was plotted to a histogram.
For experiment [7], the target named is T6, human CD3εδ expressed on transfected Lenti-X293T cells (human, UniProt P07766 23-207; P04234 22-171).
T6 construct: Cells co-transfected with hCD3ε-pcDNA3.1 and hCD3δ-pcDNA3.1
Put plainly: flow cytometry, hybridoma supernatant on hCD3ε/hCD3δ-transfected Lenti-X293T cells.
Method: On the next day, hCD3ε-pcDNA3.1 and hCD3δ-pcDNA3.1 or a control pcDNA3.1-DEST was transfected to the Lenti-X293T cells using Lipofectamine 2000, and the cells were further cultured overnight at 37° C. under 5% CO₂ conditions. On the next day, the expression vector-transfected Lenti-X293T cells were treated with TrypLE Express (Thermo Fisher Scientific Inc.), washed with DMEM containing 10% FBS, and then adjusted to a concentration of 5×10⁶ cells/mL in PBS containing 5% FBS. The resulting cell suspension was used in flow cytometry analysis.
The hCD3δ-pcDNA3.1- and hCD3δ-pcDNA3.1-transfected Lenti-X293T cells or the pcDNA3.1-DEST-transfected Lenti-X293T cells were suspended by the addition of the hybridoma culture supernatant and left standing at 4° C. for 1 hour. The cells were washed once with PBS containing 5% FBS, then suspended by the addition of Anti-Rat IgG FITC conjugate (Sigma-Aldrich Corp.) diluted 500-fold with PBS containing 5% FBS, and left standing at 4° C. for 30 minutes. The cells were washed twice with PBS containing 5% FBS and then resuspended in PBS containing 5% FBS and 2 μg/ml 7-aminoactinomycin D (Molecular Probes, Inc.), followed by detection using a flow cytometer. The data was analyzed using Flowjo. After removal of 7-aminoactinomycin D-positive dead cells by gating, the FITC fluorescence intensity of live cells was plotted to a histogram.

Experiment [8] concerns the target T2, cynomolgus monkey CD3 on cynomolgus …. As to the kind of experiment: flow cytometry on cynomolgus monkey PBMC.
The target of experiment [9] is T4, human CD3 on human PBMC. Put plainly: flow cytometry on human PBMC, Penta-His Alexa Fluor 488 detection (rMFI). The procedure:
Commercially available human PBMC (Cellular Technology Ltd. (CTL)) was adjusted to an appropriate concentration with PBS containing 5% FBS. LIVE/DEAD Fixable Near-IR Dead Cell Stain Kit (Thermo Fisher Scientific Inc.) and an anti-CD19 antibody (Beckman Coulter Inc.) were added to the cells, which were then left standing at 4° C. for 30 minutes. The cells were washed twice with PBS containing 5% FBS, then adjusted to a concentration of 1×10⁶ cells/mL with PBS containing 5% FBS, added at a concentration of 100 μL/well to a 96-well U-bottomed microplate, and centrifuged to remove a supernatant. […] The cells were washed twice with PBS containing 5% FBS. Then, Penta-His Alexa Fluor 488 (Qiagen N.V.) diluted with PBS containing 5% FBS was added at a concentration of 30 μL/well, and the plate was left standing at 4° C. for 30 minutes. The cells were washed twice with PBS containing 5% FBS and then resuspended in PBS containing 5% FBS, followed by detection using a flow cytometer (FACSCanto™ II; Becton, Dickinson and Company). The data was analyzed using Flowjo (Tree Star Inc.). The mean fluorescence intensity (MFI) of Alexa Fluor 488 in a fraction free of dead cells and CD19-positive cells was calculated. The MFI value of the scFv-unsupplemented sample was subtracted from the MFI value of the scFv-supplemented sample to calculate a relative value of MFI (rMFI).

The target in experiment [10] is T5, human CD3εγ single-chain antigen. As to the kind of experiment: complex mixed at a molar ratio of 1:2, purified by gel filtration and crystallized. (In general: Size exclusion chromatography separates by hydrodynamic size, large species first.)
Method: The buffer solution was replaced with 10 mM Tris HCl (pH 7.5) and 50 mM NaCl using Amicon Ultra 15 MWCO 10K (Merck Millipore), and the resulting solution was concentrated to 3.5 mg/mL. This concentrate was purified by gel filtration chromatography using Superdex 200 10/300GL (GE Healthcare Bio-Sciences Corp.). A fraction of the complex was concentrated into approximately 4.0 mg/mL using Amicon Ultra 15 MWCO 10K (Millipore).
To 0.5 μL of the protein solution, an equal amount of a precipitant solution (0.1 M MES monohydrate (pH 6.5), 1.6 M ammonium sulfate, and 10% v/v 1,4-dioxane) was added, and the resulting solution was placed in a sealed container containing 0.05 mL of a precipitant solution so that the solutions had no contact with each other. The container was left standing at 25° C. One month later, 0.1 mm×0.05 mm×0.05 mm rod-like crystals were obtained.
In experiment [11] the target is T7, CD3 immobilized on a sensor chip (Example 7)-1-2).
T7 construct: the text says only 'CD3 immobilized on a sensor chip'; also called human CD3
Put plainly: SPR (BIAcore T-200), CD3 immobilized, scFv injected at five concentrations; concentration giving 1/2 Rmax. As for the experimental part: Five different concentrations of the scFv were injected into CD3 immobilized on a sensor chip. Rmax was estimated from the resulting response, and the antibody concentration that reached 1/2 thereof was defined as the dissociation constant of the scFv for CD3.

Experiment [12] addresses T1, human TROP2 on FaDu and HPAF-II cells. Put plainly: flow cytometry on FaDu and HPAF-II cells, Penta-His Alexa Fluor 488 detection (rMFI). As for the experimental part:
The cells were washed twice with PBS containing 5% FBS, then adjusted to a concentration of 1×10⁶ cells/mL with PBS containing 5% FBS, added at a concentration of 100 μL/well to a 96-well U-bottomed microplate, and centrifuged to remove a supernatant. […] The cells were washed twice with PBS containing 5% FBS.

T2 sequence (Q95LI5 22-198): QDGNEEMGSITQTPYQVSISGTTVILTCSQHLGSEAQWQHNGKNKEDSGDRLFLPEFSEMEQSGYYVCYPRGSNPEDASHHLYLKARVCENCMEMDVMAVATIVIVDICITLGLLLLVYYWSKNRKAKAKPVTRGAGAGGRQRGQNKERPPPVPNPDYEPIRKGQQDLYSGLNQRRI

B1: T2C-0005 (HT1-11 scFv/C3E-7035 bispecific molecule) (bispecific antibody)
chain: GQVQLVQSGAEVKKPGASVKVSCKASGYTFTTAGMQWVRQAPGQGLEWMGWINTHSGVPKYAEDFKGRVTISADTSTSTAYLQLSSLKSEDTAVYYCARSGFGSSYWYFDVWGQGTLVTVSSGGGGSGGGGSGGGGSDIQMTQSPSSLSASVGDRVTITCKASQDVSTAVAWYQQKPGKAPKLLIYSASYRYTGVPSRFSGSGSGTDFTLTISSLQPEDFAVYYCQQHYITPLTFGQGTKLEIKRTGGGGSEVQLVESGGGLVQPGGSLRLSCAASGVTFNYYGMSWIRQAPGKGLEWVASITNSGGRIYYPDSVKGRFTISRENTQKTLYLQMNSLRAEDTAVYYCTLDGRDGWVAYWGQGTLVTVSSGGGGSGGGGSGGGGSMAQAVLTQPSSVSGVPGQRVTISCKRNTGNIGSNYVNWYQQLPGTAPKLLIYRDDKRPSGVPDRFSGSKSGTSASLAITGFQAEDEADYYCQSYSSGFIFGGGTKLTVLGAAAGAGGDYKDDDDKGAAAHHHHHH
notes: Tandem scFv; also called anti-TROP2-CD3 bispecific molecule
For orientation: EC50 (read off the curve) means the concentration needed to bring the measured effect to its halfway point. As a reminder, the Kd is the free concentration of one partner at which half of the binding sites on the other are occupied at equilibrium, for simple one-to-one binding. With B1, the “EC50 (read off the curve)” value (in [1]; with human CD3 on human PBMC [4]) was around 10 nM in each case. Further, the binding result in experiment [2] was “binds”. Also, the Kd in [3] was 11.9 nM; in experiment [5], 126 nM.

B2: T2C-0001 (HT1-11 scFv/C3E-7034 bispecific molecule) (bispecific antibody)
chain: GQVQLVQSGAEVKKPGASVKVSCKASGYTFTTAGMQWVRQAPGQGLEWMGWINTHSGVPKYAEDFKGRVTISADTSTSTAYLQLSSLKSEDTAVYYCARSGFGSSYWYFDVWGQGTLVTVSSGGGGSGGGGSGGGGSDIQMTQSPSSLSASVGDRVTITCKASQDVSTAVAWYQQKPGKAPKLLIYSASYRYTGVPSRFSGSGSGTDFTLTISSLQPEDFAVYYCQQHYITPLTFGQGTKLEIKRTGGGGSEVQLVESGGGLVQPGGSLRLSCAASGVTFNYYGMSWIRQAPGKGLEWVASITNSGGRIYYPDSVKGRFTISRENTQKTLYLQMNSLRAEDTAVYYCTLDGRDGWVAYWGQGTLVTVSSGGGGSGGGGSGGGGSNFMLTQPHSVSESPGKTVTISCKRNTGNIGSNYVNWYQQHEGSSPTTIIYRDDKRPDGVSDRFSGSIDRSSKSASLTISNLKTEDEADYFCQSYSSGFIFGGGTKLTVLGAAAGAGGDYKDDDDKGAAAHHHHHH
notes: as for B1
Regarding B2, the binding result in [2] is on record as “binds”. In addition, the Kd in [3] stood at 12.8 nM; in [5], 13.9 nM. The “EC50 (read off the curve)” value with human CD3 on human PBMC [4] was around 1 nM.

B3: rat anti-CD3 monoclonal antibody C3-147 (antibody, IgG2b, V domains shown)
VH: EVQLVESGGGLVQPGRALKLSCVVSGVTFNYYGMSWIRQAPGKGLEWVASITNSGGRIYYPDSVKGRFTISRENTQKTLYLQMNSLRSEDTATYYCTLDGRDGWVAYWGQGTLVTVSS
VL: QFVLTQPNSVSTNLGTTVELSCKRNTGNIGSNYVNWYQQHEGRSPTTIIYRDDKRPDGVSDRFSGSIDRSSKSALLTINNVQTEDEADYFCQSYSSGFIFGGGTKLTVL
notes: probably lambda; also called rat anti-human CD3 antibody
For B3, the binding result in experiment [6] and in experiment [7] was “binds” each time.

B4: C3E-7034 (humanized anti-CD3 scFv) (scFv)
scFv: GEVQLVESGGGLVQPGGSLRLSCAASGVTFNYYGMSWIRQAPGKGLEWVASITNSGGRIYYPDSVKGRFTISRENTQKTLYLQMNSLRAEDTAVYYCTLDGRDGWVAYWGQGTLVTVSSGGGGSGGGGSGGGGSNFMLTQPHSVSESPGKTVTISCKRNTGNIGSNYVNWYQQHEGSSPTTIIYRDDKRPDGVSDRFSGSIDRSSKSASLTISNLKTEDEADYFCQSYSSGFIFGGGTKLTVLGAAAGAGGDYKDDDDKGAAAHHHHHH
In the case of B4, the binding result (in experiment [8]; with human CD3 on human PBMC [9]; in experiment [10]) was “binds” throughout. The affinity in experiment [11], expressed as Kd, was 4.5 nM.

B5: HT1-11 scFv (humanized anti-TROP2 scFv) (scFv)
scFv: QVQLVQSGAEVKKPGASVKVSCKASGYTFTTAGMQWVRQAPGQGLEWMGWINTHSGVPKYAEDFKGRVTISADTSTSTAYLQLSSLKSEDTAVYYCARSGFGSSYWYFDVWGQGTLVTVSSGGGGSGGGGSGGGGSDIQMTQSPSSLSASVGDRVTITCKASQDVSTAVAWYQQKPGKAPKLLIYSASYRYTGVPSRFSGSGSGTDFTLTISSLQPEDFAVYYCQQHYITPLTFGQGTKLEIKRTGAAAHHHHHH
notes: The scFv was detected through its His tag
As for B5, in [12], the binding result is on record as “binds”.

The values are drawn from patent US20190359712A1 (Daiichi Sankyo, published 2019).
